No end group written: not given here.
Assays:
[1] = target: T1, C terminus of Hsc70 interacting protein (CHIP) (human, UniProt Q9UNE7 1-303); test: FP
T1 chain: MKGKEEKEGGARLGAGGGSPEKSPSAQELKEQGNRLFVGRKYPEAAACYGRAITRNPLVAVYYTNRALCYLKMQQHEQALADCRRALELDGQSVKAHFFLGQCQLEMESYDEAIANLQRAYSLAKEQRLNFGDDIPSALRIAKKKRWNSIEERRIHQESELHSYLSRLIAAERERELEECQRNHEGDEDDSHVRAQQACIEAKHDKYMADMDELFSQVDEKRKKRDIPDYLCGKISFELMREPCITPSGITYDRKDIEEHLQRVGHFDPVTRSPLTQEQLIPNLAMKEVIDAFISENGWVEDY

DnaJB4 = DnaJB4 (human, UniProt Q9UDY4 1-337); test: FP
DnaJB4, sequence (Q9UDY4 whole entry): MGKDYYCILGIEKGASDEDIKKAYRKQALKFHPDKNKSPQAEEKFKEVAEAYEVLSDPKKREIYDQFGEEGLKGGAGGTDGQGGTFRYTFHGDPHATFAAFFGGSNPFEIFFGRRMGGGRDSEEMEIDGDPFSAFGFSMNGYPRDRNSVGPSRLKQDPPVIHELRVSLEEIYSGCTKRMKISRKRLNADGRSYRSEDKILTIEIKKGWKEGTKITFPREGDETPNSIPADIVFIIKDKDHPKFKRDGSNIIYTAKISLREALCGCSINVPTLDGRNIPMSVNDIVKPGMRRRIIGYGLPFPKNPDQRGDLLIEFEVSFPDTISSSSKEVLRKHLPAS

| Binder | Kd [1] [µM] | Kd (DnaJB4) [nM] |
| --- | --- | --- |
| GSGPTIEEVD-OH (not fully specified (N-terminus); printed as FITC-Ahx-GSGPTIEEVD) [Hsp72 tracer FITC-Ahx-GSGPTIEEVD] | 1.05 | – |
| GSGPEIEEVD-OH (not fully specified (N-terminus); printed as FITC-Ahx-GSGPEIEEVD) [Hsp72 T636E tracer FITC-Ahx-GSGPEIEEVD] | 5.04 | 1760 |

Source: paper PMC8913300 (2022)
